Data on two proteins can be found in publication PMC4264689, “Oligomerization, Conformational Stability and Thermal Unfolding of Harpin, HrpZPss and Its Hypersensitive Response-Inducing C-Terminal Fragment, C-214-HrpZPss” (PLoS ONE, 2014).

The data set concerns the molecule itself. As to the kind of experiment: native gel or EMSA; native PAGE of the purified proteins in solution; multiple bands / broad smear taken as polydisperse oligomers; gel conditions not given.

B1: HrpZPss (harpin HrpZ from Pseudomonas syringae pv. syringae), full length (natural protein)
chain: MQSLSLNSSSLQTPAMALVLVRPEAETTGSTSSKALQEVVVKLAEELMRNGQLDDSSPLGKLLAKSMAADGKAGGGIEDVIAALDKLIHEKLGDNFGASADSASGTGQQDLMTQVLNGLAKSMLDDLLTKQDGGTSFSEDDMPMLNKIAQFMDDNPAQFPKPDSGSWVNELKEDNFLDGDETAAFRSALDIIGQQLGNQQSDAGSLAGTGGGLGTPSSFSNNSSVMGDPLIDANTGPGDSGNTRGEAGQLIGELIDRGLQSVLAGGGLGTPVNTPQTGTSANGGQSAQDLDQLLGGLLLKGLEATLKDAGQTGTDVQSSAAQIATLLVSTLLQGTRNQAAA
notes: Harpin HrpZ of Pseudomonas syringae pv. syringae, 34.7 kDa, 341 amino acids, full length; Forms polydisperse oligomers; the number of copies is not defined; also called full length HrpZPss; native HrpZPss; source: expressed and purified as described earlier [15]
As for B1, the binding result is “binds”.

B2: C-214-HrpZPss (C-terminal fragment of HrpZPss with 214 amino acids) (domain or fragment)
chain: LTKQDGGTSFSEDDMPMLNKIAQFMDDNPAQFPKPDSGSWVNELKEDNFLDGDETAAFRSALDIIGQQLGNQQSDAGSLAGTGGGLGTPSSFSNNSSVMGDPLIDANTGPGDSGNTRGEAGQLIGELIDRGLQSVLAGGGLGTPVNTPQTGTSANGGQSAQDLDQLLGGLLLKGLEATLKDAGQTGTDVQSSAAQIATLLVSTLLQGTRNQAAA
notes: Harpin HrpZ of Pseudomonas syringae pv. syringae, C-terminal 214 residues (N-terminal 127 amino acids deleted); Cloned under the NdeI and EcoRI sites of pET 28a, which probably adds an N-terminal His6 tag with a thrombin site; Forms polydisperse oligomers; the number of copies is not defined; also called C-terminal 214 residues of HrpZPss; source: E. coli BL21 (DE3), pET 28a, purified (Ni-NTA, …)
For the protein B2, the binding result was “binds”.
